Experimental findings from US20250235501A1, “Methods and Compositions for Treating or Preventing Neurological Injury or Neurological Disorders” (University of Connecticut, priority 2024, published 2025) are described below.

The assay addresses T1, TRPM2 interaction with GluN2b (Rattus norvegicus, UniProt Q00960).
T1 construct: TRPM2 plasmid a gift 17928; 17924; 17925; host or cells: HEK293T
Put plainly: Co-IP of TRPM2 with GluN2b in co-transfected HEK293T cells. The conditions noted are these: 10 μM peptide overnight; IP anti-GluN2b, WB anti-Flag. It is filed as cell-based, human. As for the experimental part:
FIGS. 5A and 5B show the effects of TAT-EE3 on interaction of TRPM2 and NMDARs. Co-IP tests of NMDARs with WT or EE3 domain mutants of TRPM2 (Flag-tagged) in co-transfected HEK293T cells. WT TRPM2 groups were treated with 10 μM TAT-SC or TAT-EE3 overnight. Lysates were IP's with anti-GluN2a (FIG. 5A) or anti-GluN2b (FIG. 5B), and probed by WBs with anti-Flag. IgG was used as control for IP. Similar to the mutants TRPM2-ΔEE3 and TRPM2-EQE, TAT-EE3 disrupted TRPM2 interaction with GluN2a and GluN2b.
were ordered from GenScript Biotech, and dissolved in PBS to make a stock concentration at 10 mM. HEK-293T cells or isolated neurons were treated with TAT-SC or TAT-EE3 at a concentration of 10 μM for at least 8 h prior to use. Mice were injected with TAT-SC or TAT-EE3 intraperitoneally (ip) at a dose of 100 nmol/kg. […]
NP-40 lysis buffer ([…], 150 mM NaCl, 1 mM EDTA, 50 mM Tris, pH=8.0) containing proteinase inhibitors (Sigma-Aldrich, 539131-10VL) and phosphatase inhibitors (Thermal Fisher Scientific, 78428) was used to lyse both cultured cells and frozen brain tissue. […] Protein concentration was measured using Pierce™ Rapid Gold BCA Protein Assay Kit (Thermal Fisher Scientific, A53225). […] Then samples were ready for western blotting analysis.

T1 sequence (Q00960 27-1482, other chains not shown): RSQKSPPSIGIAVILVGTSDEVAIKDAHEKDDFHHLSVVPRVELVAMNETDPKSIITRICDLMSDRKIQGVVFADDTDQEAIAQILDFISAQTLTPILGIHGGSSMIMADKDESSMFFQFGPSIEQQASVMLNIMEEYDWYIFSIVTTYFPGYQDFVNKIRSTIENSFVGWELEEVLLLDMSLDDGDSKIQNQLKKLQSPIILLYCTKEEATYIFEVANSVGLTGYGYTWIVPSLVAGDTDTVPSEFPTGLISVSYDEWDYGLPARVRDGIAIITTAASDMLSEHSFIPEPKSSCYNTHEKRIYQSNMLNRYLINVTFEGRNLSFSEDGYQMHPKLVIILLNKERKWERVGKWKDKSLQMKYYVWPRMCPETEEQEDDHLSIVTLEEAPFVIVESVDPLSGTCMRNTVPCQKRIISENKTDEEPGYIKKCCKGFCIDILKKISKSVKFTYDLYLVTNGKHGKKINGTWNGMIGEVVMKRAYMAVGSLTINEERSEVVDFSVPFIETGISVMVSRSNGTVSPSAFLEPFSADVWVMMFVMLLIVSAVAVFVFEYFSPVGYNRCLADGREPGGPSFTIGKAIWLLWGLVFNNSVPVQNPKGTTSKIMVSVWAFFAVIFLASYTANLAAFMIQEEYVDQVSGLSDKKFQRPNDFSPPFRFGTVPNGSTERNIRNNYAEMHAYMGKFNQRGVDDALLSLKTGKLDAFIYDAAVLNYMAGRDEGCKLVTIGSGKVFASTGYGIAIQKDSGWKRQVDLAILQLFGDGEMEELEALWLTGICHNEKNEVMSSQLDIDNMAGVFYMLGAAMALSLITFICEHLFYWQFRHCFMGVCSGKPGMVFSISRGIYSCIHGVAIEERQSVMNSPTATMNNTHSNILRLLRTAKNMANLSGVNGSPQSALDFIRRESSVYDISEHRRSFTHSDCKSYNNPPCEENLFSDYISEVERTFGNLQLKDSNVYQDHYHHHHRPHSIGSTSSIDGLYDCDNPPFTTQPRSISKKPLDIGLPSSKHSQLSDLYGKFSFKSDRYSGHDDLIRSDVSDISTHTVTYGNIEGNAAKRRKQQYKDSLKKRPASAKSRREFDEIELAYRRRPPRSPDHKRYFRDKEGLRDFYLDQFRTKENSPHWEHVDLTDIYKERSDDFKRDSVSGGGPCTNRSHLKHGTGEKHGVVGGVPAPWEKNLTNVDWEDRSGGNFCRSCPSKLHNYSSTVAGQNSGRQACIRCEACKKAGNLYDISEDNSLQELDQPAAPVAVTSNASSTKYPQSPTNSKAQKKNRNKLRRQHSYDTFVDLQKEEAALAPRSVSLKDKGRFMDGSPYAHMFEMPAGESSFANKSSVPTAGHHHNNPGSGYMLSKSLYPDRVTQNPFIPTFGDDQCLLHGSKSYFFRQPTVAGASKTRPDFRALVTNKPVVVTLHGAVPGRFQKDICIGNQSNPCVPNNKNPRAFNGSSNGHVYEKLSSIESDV

“TAT-EE3: membrane permeable disrupting peptide, sequence YGRKKRRQRRREEDTDSSEEMLALAEE (SEQ ID NO: 4)”: the “interaction of TRPM2 with GluN2b (co-IP)” value was “completely disrupted”.
